Assay: Circular dichroism (CD) spectral analysis of peptide conformation, % helicity
Format: physicochemical
Experimental: According to this example, circular dichroism (CD) experiments were performed to determine the conformation changes of VIP in phospholipid micelles, pH and temperature changes, and in aqueous solutions. CD spectra were recorded on a JASCO J-700 spectropolarimeter using a fused quartz cell of 1 cm pathlength. Spectra in 0.15 N saline (pH 6.8) and 5 mM Hepes buffer (pH 7.4) were measured at a peptide concentration of 4 μM and at a lipid concentration of 1 mM. The effects of CaM, pH (6.8 or 7.4) and temperature (25° C. or 37° C.) on VIP conformation were also studied. The conformation of VIP fragments was likewise studied. All measurements were carried out at room temperature (˜25° C.) unless otherwise noted. A bandwidth of 1.0 nm and a step resolution of 0.5 nm were used to collect an average of 9 accumulations/sample at the […] (200-260 nm wavelength). The peptide spectra shown have the background buffer scans, and empty vesicle scans subtracted and were smoothed using the noise reduction function. The temperature during spectral analysis was maintained by using a circulating water bath attached to a jacket surrounding the fused quartz CD cell. The percent helical characterization of VIP was determined by a method of Haghjoo et al., Peptide Research 9 (6):327-331 (1996): % helicity=[−(θ208+4000)/29 000]*100 and are reported in table 1.
According to the example, CD was used to determine the conformation of VIP in saline, Hepes buffer and phospholipid micelles at room temperature and at 37° C. The CD spectra analysis was performed after 13 μg of human VIP incubated with 1 ml PEG-DSPE (1 μmol) micelles for 30 min at room temperature as determined by preliminary studies. A bandwidth of 1.0 nm and a step resolution of 0.5 nm were used to collect an average of 9 accumulations/sample at near UV range (200-260 nm). The temperature was maintained during spectral analysis by a circulating water bath attached to a jacket surrounding the fused quartz CD cell. The evaluation of VIP molecule conformation in SSM by using circular dichroism was successful because the distortion caused by spherical particles was eliminate due to the small size and univesicular structure of the SSM. […] The phospholipid micelles were ideal in our study of VIP conformation since it provided a hydrophobic core similar to the phospholipid bilayer of the SSL. Moreover, both the negative charge, and the hydrophilic layer provided by the PEG mimic the conditions of our SSL and make it possible to infer the VIP conformational results.
According to this example, the method of example 4 was repeated to determine the conformation of VIP in saline and phospholipid micelles plus calmodulin (CaM). CD spectra measurements were performed after 13 μg/ml of VIP was incubated with 1.0 μmol/ml of phospholipid micelles for 30 min followed by 10^−10 M CaM incubated with VIP in phospholipid micelles for 2 h at 4° C. (conjugation paper). A bandwidth of 1.0 nm and a step resolution of 0.5 nm were used to collect the average of 9 accumulations/sample at near UV range (200-260 nm).
According to this example the method of example 4 was repeated to determine the conformation of VIP fragments in saline and phospholipid micelles. CD spectra measurements were performed after incubation of VIP fragments with phospholipid micelles, at a molar concentration equivalent to VIP (i.e. 9 μg/ml for VIP10-28 fragment and 6 μg/ml for VIP1-12 fragment), for 30 min. A bandwidth of 1.0 nm and a step resolution of 0.5 nm were used to collect the average of 9 accumulations/sample at near UV range (200-260 nm). Specifically, CD spectra of human VIP fragment (1-12) and (10-28) in the presence of phospholipid micelles are shown in FIG. 5. […] These effects correlate well with the % helicity of VIP fragments determined in saline and in the presence of phospholipids (Table 1). […]

Substance: vasoactive intestinal peptide [VIP]
- Conformation from CD spectrum in the presence of phospholipid micelles (SSM) (phospholipid micelles (SSM), room temperature): predominantly α-helix conformation
- % Helicity (in the presence of) Phospholipids (37° C.): 67%
- % Helicity (in the presence of) Phospholipids (room temperature): 27%
- % Helicity (in the presence of) Saline (saline, 37° C.): 2%
- % Helicity (in the presence of) Saline (saline, room temperature): 5%
- Conformation from CD spectrum in saline (saline, room temperature): primarily a random coil structure
